Positions of bridges follow the written chain, without caps; N, C: chain ends.
Target: T1, Recombinant mouse NELL2 (neural epidermal growth factor-like like 2) (mouse, UniProt Q61220 25-819)
T1 sequence (looked up): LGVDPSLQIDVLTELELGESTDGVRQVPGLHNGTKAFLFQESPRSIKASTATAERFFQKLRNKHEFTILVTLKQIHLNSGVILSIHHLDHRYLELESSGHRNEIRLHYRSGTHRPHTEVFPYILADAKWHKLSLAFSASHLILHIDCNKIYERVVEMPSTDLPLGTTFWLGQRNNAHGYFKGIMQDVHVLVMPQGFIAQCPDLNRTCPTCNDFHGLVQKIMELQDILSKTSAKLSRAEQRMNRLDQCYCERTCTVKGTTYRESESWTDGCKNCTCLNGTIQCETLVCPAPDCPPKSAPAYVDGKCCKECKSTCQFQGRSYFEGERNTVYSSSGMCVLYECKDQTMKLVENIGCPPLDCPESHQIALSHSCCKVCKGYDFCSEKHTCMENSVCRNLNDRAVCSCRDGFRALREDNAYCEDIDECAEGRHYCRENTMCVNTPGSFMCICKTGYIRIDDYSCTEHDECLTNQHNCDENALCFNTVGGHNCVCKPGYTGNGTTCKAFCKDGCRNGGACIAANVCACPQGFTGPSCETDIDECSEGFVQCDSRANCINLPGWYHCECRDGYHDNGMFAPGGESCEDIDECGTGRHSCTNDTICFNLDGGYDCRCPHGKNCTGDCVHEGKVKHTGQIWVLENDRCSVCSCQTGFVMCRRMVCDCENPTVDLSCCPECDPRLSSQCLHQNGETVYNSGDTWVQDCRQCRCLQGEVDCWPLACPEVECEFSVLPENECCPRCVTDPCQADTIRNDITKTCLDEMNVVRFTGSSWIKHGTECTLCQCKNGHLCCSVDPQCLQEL
Experiment: SPR

B1: Synthetic NICOL with the native SS bond pairing 3 (mouse NELL2-interacting cofactor for lumicrine signaling) (natural protein)
chain: EPATGSAVPAQSRPCVDCHAFEFMQRALQDLRKTAYSLDARTETLLLQAERRALCACWPAGR
modifications: disulfide 15-55, 18-57
Q: What does the source list for B1?
A: Kd: 61.7 nM; koff: 0.00134 s⁻¹; kon: 23500 M⁻¹ s⁻¹

B2: Synthetic NICOL with the SS isomer 4 (mouse NICOL, non-native SS bond pairing) (natural protein)
chain: EPATGSAVPAQSRPCVDCHAFEFMQRALQDLRKTAYSLDARTETLLLQAERRALCACWPAGR
modifications: disulfide 15-57, 18-55
Q: With B2 as the binder, how does the Kd read?
A: 145 nM

Q: What about the koff of the same binder?
A: 0.00157 s⁻¹

Q: And the kon?
A: 13800 M⁻¹ s⁻¹
